Laboratory results published in PMC10522485.

The substances below were run against CLIP102-120 labeled with FITC (human) (assay: fluorescence polarisation; equilibrium; empty DR from bacterial expression varied from 4 µM to 7.8125 nM (2-fold dilutions), CLIP-FITC fixed at 100 nM).

| Substance | Kd |
| --- | --- |
| empty HLA-DR DRA*01:01/DRB1*01:01 from bacterial expression (complex) | 0.414 µM |
| empty HLA-DR DRA*01:01/DRB1*01:02 from bacterial expression (complex) | 0.325 µM |
| empty HLA-DR DRA*01:01(N62A)/DRB1*01:02 from bacterial expression (complex) | 0.512 µM |
| empty HLA-DR DRA*01:01/DRB1*01:01(R71A) from bacterial expression (complex) | 1.36 µM |
| empty HLA-DR DRA*01:01/DRB1*01:02(R71A) from bacterial expression (complex) | 0.508 µM |
| empty HLA-DR DRA*01:01(N62A)/DRB1*01:01 from bacterial expression (complex) | 1.11 µM |

Each substance was assayed against CLIP102-120 labeled with FITC (human) (assay: fluorescence polarisation; dissociation of 100 nM DR/CLIP-FITC complexes with 20 µM unlabeled CLIP102-120 as competitor, no DM (intrinsic off-rate), 37 °C, phosphate/citrate buffer pH 5.2).

| Substance | koff |
| --- | --- |
| HLA-DR DRA*01:01/DRB1*13:01, insect cell-expressed (complex) | 7.9e-05 s⁻¹ |
| HLA-DR DRA*01:01/DRB1*04:04, insect cell-expressed (complex) | 3.22e-05 s⁻¹ |
| HLA-DR DRA*01:01/DRB1*04:01, insect cell-expressed (complex) | 4.23e-05 s⁻¹ |
| HLA-DR DRA*01:01/DRB1*15:01, insect cell-expressed (complex) | 0.000223 s⁻¹ |
| HLA-DR DRA*01:01/DRB1*01:02, insect cell-expressed (complex) | 2.45e-05 s⁻¹ |
| HLA-DR DRA*01:01/DRB1*01:01, insect cell-expressed (complex) | 1.06e-05 s⁻¹ |
| HLA-DR DRA*01:01/DRB1*08:01, insect cell-expressed (complex) | 6.88e-05 s⁻¹ |
| HLA-DR DRA*01:01/DRB1*13:02, insect cell-expressed (complex) | 0.000148 s⁻¹ |
| HLA-DR DRA*01:01/DRB1*03:01, insect cell-expressed (complex) | 0.000317 s⁻¹ |
| HLA-DR DRA*01:01/DRB1*14:01, insect cell-expressed (complex) | 6.27e-05 s⁻¹ |
| HLA-DR DRA*01:01/DRB1*08:02, insect cell-expressed (complex) | 1.01e-05 s⁻¹ |
| HLA-DR DRA*01:01/DRB1*07:01, insect cell-expressed (complex) | 3.25e-05 s⁻¹ |
